Source: article PMC7727368

Target: Fasciola hepatica profilin (FhProfilin), recombinant (Fasciola hepatica)
Test: SEC; Superdex S75 16/60 in TBS (10 mM Tris-HCl, 300 mM NaCl, pH 8.0), 1 ml/min; elution volume compared with proteins of known molecular weight

Fasciola hepatica profilin (FhProfilin), recombinant (natural protein)
stoichiometry N: 2
